Molecular target: recombinant human KLK5 (human) (UniProt Q9Y337)
Assay: cell-based or functional assay

Chain of recombinant human KLK5 (human) (Q9Y337 67-293): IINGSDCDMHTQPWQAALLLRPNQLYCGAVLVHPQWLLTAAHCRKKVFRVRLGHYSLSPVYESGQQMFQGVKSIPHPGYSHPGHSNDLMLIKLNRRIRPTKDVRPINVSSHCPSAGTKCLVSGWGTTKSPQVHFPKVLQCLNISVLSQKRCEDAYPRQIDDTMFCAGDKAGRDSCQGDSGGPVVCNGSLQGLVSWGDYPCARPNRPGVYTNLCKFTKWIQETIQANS

## Spink5.Fc (Fc fusion)
  IC50, KLK5-induced IL-8 secretion by A549 cells: 21 nM

From patent publication US20200040103A1
